Experiments:
[1] = molecular target: C1q in the complement system (rabbit serum as the source of complement) (rabbit); assay: cell-based or functional assay
[2] = molecular target: FcγIIIA Receptor on the effector cells (human) (UniProt P08637); assay: cell-based or functional assay
[3] = molecular target: FcRn (human Fc receptor panel, Octet) (human) (UniProt P55899); assay: BLI (Octet HTX), receptor on anti-penta-His biosensor, 1:1 model
[4] = molecular target: FcγRI (human Fc receptor panel, Octet) (human) (UniProt P12314); assay: as above
[5] = molecular target: FcγRIIA (human Fc receptor panel, Octet) (human) (UniProt P12318); assay: as above
[6] = molecular target: FcγRIIB/C (human Fc receptor panel, Octet) (human) (UniProt P31994); assay: as above
[7] = molecular target: FcγRIIIA F158 (human Fc receptor panel, Octet) (human) (UniProt P08637); assay: as above
[8] = molecular target: FcγRIIIA V158 (human Fc receptor panel, Octet) (human) (UniProt P08637); assay: as above
[9] = molecular target: FcγRIIIB (human Fc receptor panel, Octet) (human) (UniProt O75015); assay: as above
[10] = molecular target: FcγRIIIa 158V receptor (SPR assay) (UniProt P08637); assay: SPR, receptor amine-coupled to the chip, antibody injected, 1:1 kinetics
[11] = molecular target: FcγRIIIa 158F receptor (SPR assay) (UniProt P08637); assay: SPR, receptor amine-coupled to the chip, antibody injected, steady state affinity
[12] = molecular target: CD20 on Jeko-1, Raji and Daudi cells (human) (UniProt P11836); assay: cell-based MSD electrochemiluminescence binding assay on CD20 expressing Jeko-1 cells
[13] = molecular target: FcγRIIIa 158F receptor (SPR assay) (UniProt P08637); assay: SPR, relative to the TG-1101 reference standard
[14] = molecular target: FcγRIIIa 158V receptor (SPR assay) (UniProt P08637); assay: SPR, relative to the TG-1101 reference standard
[15] = molecular target: HRP conjugated human C1q (human) (UniProt P02745); assay: ELISA, antibody coated on the plate, HRP conjugated human C1q
HRP conjugated human C1q (human), sequence (P02745 23-245 limits assumed, chain 1 of 3): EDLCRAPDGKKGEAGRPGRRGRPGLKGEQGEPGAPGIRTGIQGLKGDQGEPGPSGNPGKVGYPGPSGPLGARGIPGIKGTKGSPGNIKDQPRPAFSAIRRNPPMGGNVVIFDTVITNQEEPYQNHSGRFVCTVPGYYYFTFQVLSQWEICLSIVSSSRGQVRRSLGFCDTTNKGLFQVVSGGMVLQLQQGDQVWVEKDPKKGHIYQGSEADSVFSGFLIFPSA
HRP conjugated human C1q (human), sequence (P02746 28-253 limits assumed, chain 2 of 3, further chain): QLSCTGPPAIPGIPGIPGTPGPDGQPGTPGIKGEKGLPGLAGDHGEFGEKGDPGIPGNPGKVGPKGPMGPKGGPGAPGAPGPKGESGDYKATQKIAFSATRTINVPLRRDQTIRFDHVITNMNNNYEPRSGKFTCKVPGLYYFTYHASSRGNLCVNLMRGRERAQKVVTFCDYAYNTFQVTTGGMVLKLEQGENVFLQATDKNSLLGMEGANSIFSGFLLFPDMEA
HRP conjugated human C1q (human), sequence (P02747 29-245 limits assumed, chain 3 of 3, further chain): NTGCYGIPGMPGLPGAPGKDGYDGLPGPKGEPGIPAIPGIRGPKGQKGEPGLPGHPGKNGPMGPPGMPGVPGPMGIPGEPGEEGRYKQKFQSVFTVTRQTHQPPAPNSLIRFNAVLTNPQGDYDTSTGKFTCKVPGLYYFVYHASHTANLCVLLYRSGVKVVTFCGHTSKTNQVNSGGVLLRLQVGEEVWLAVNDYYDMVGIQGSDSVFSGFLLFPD

CD20 on Jeko-1, Raji and Daudi cells (human), sequence (P11836 whole entry): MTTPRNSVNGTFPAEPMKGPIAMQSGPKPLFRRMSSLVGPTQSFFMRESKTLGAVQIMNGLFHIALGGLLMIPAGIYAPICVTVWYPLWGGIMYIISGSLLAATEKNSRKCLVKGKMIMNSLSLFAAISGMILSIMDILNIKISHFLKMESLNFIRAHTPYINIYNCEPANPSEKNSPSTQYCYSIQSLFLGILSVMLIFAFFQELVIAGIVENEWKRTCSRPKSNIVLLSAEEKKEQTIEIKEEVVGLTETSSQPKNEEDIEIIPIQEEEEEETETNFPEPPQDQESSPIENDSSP
FcγIIIA Receptor on the effector cells (human), sequence (P08637 17-254): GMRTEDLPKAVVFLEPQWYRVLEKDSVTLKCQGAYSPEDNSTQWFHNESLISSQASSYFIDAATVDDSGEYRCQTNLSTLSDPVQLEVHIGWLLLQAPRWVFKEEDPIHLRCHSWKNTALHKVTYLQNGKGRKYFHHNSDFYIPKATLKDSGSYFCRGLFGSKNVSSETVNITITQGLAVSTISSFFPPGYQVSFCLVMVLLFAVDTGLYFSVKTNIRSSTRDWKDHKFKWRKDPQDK
FcγRIIIa 158V receptor (SPR assay), sequence (P08637 17-208 F176V limits assumed): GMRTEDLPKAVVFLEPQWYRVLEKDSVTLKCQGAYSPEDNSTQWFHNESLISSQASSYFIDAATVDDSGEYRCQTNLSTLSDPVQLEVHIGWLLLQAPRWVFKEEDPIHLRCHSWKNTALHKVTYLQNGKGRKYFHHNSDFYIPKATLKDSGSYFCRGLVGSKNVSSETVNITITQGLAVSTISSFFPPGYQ
FcγRIIIA V158 (human Fc receptor panel, Octet) (human), sequence (P08637 17-208 F176V limits assumed): as above
FcRn (human Fc receptor panel, Octet) (human), sequence (P55899 24-297 limits assumed, chain 1 of 2): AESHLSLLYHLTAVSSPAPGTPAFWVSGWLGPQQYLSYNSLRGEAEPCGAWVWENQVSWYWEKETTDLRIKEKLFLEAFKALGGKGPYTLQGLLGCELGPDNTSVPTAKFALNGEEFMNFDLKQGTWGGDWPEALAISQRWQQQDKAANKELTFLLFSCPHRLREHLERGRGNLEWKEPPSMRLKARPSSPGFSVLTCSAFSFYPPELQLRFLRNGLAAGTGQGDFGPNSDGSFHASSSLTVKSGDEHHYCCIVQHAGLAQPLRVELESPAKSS
FcRn (human Fc receptor panel, Octet) (human), sequence (P61769 21-119 limits assumed, chain 2 of 2, further chain): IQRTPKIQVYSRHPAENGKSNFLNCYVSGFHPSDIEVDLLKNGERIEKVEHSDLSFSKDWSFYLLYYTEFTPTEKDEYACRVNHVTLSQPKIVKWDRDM
FcγRIIA (human Fc receptor panel, Octet) (human), sequence (P12318 36-218 limits assumed): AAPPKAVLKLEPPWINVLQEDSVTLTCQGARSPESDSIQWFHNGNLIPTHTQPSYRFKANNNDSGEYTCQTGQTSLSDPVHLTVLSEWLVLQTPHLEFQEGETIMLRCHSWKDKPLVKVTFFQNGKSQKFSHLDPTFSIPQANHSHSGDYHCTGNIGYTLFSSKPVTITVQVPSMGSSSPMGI
FcγRIIIB (human Fc receptor panel, Octet) (human), sequence (O75015 17-200 limits assumed): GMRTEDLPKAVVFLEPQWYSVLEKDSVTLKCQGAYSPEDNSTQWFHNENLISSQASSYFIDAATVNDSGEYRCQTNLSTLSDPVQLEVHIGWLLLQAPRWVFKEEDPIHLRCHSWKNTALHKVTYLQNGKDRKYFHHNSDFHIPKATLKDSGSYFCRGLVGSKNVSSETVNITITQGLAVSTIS
FcγRIIIa 158F receptor (SPR assay), sequence (P08637 17-208 limits assumed): as the sequence (P08637 17-208 F176V limits assumed) above, with V160F counted along it
FcγRIIIA F158 (human Fc receptor panel, Octet) (human), sequence (P08637 17-208 limits assumed): as the sequence (P08637 17-208 F176V limits assumed) above, with V160F counted along it
FcγRI (human Fc receptor panel, Octet) (human), sequence (P12314 16-288 limits assumed): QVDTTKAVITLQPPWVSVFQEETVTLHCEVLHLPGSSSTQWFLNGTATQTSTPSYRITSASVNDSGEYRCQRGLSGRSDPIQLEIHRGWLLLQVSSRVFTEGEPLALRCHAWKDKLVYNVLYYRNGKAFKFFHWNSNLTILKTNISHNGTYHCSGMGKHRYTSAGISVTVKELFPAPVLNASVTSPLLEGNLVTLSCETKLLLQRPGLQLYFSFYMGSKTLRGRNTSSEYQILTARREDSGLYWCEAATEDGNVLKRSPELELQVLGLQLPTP
FcγRIIB/C (human Fc receptor panel, Octet) (human), sequence (P31994 46-217 limits assumed): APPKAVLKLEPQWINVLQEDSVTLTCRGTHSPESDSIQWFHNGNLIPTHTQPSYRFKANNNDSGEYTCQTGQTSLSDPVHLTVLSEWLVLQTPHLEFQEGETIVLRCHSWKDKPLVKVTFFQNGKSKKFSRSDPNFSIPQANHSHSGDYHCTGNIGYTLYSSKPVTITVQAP

Row | Substance | CDC EC50 (Jeko-1 cells, rabbit serum complement) [1] [µg/mL] | ADCC EC50 (Raji target cells, KILR CD16a effector cells) [2] [ng/mL] | EC50 of ADCC assay Using Primary NK Cells (Raji target cells, LDH release) [2] [µg/mL] | Kd [3] [nM] | Kd [4] [nM] | Kd [5] [nM] | Kd [6] [nM] | Kd [7] [nM] | Kd [8] [nM] | Kd [9] [nM] | Kd [10] [nM] | Kd [11] [nM] | EC50 [12] [µg/mL] | Relative Affinity (%) [13] [%] | Relative Binding (%) [13] [%] | Relative Affinity (%) [14] [%] | Relative Binding (%) [14] [%] | EC50 [15] [µg/mL]
1 | ARZERRA (ofatumumab) (antibody) | 0.353 | 0.0741 | 500 | 64 | 21 | 232 | 156 | 482 | 207 | 307 | 1640 | 14800 | 0.092 | – | – | – | – | –
2 | GAZYVA (obinutuzumab) (antibody) | – | 0.00658 | 19 | 39 | 26 | 281 | 225 | 98 | 40 | 277 | 242 | 1790 | 0.053 | 37.6 | 33 | 27.6 | 19.6 | –
3 | OCREVUS (ocrelizumab) (antibody) | 1.21 | 0.0608 | – | 62 | 19 | 624 | 362 | 592 | 138 | 2090 | 1030 | 6760 | – | – | – | – | – | 2.9
4 | RITUXAN (rituximab) (antibody) | 0.245 | 5.46 | 1390 | 43 | 15 | 253 | 211 | – | – | 309 | 1200 | 6960 | 0.133 | – | – | – | – | –
